The text below walks through data of the RNAGym collection of RNA variant scans (doi:10.7554/elife.80360).

To fix the notation:
B1: CPEB3 Ribozyme (parent)
chain: GGGGGCCACAGCAGAAGCGUUCACGUCGCGGCCCCUGUCAGAUUCUGGUGAAUCUGCGAAUUCUGCUGU

This data set covers variants of B1. In words: self-cleavage, relative activity (ratio to wild type); higher = more cleavage; co-transcriptional.
As for GGGGGCCACAGCAGAAGCGUUCACGUCGCGGCCCCUGUCAGCUUUUGGUGAAUCUGCGAAUUCUGCUGU [A42C C45U], the self-cleavage came to 0.937.
For GGGGGCCACAGCAGAAGCGUUCACGUCGCGGCCCCUGUCAGCUUGUGGUGAAUCUGCGAAUUCUGCUGU [A42C C45G], the self-cleavage was 0.819.
To GGGGGCCACAGCAGAAGCGUUCACGUCGCGGCCCCUGUCAUAUUCUGGUGAAUCGGCGAAUUCUGCUGU [G41U U55G] belongs 0.324; to GGGGGCCACAGCAGAAGCGUUCACGUCGCGGCCCCUGUCAGCUUCUGGUGAAUGUGCGAAUUCUGCUGU [A42C C54G], 0.73.
To GGGGGCCACAGCAGAAGCGUUCACGUCGCGGCCCCUGUCAGCUUCUGGUGAUUCUGCGAAUUCUGCUGU [A42C A52U] belongs 0.96; to GGGGGCCACAGCAGAAGCGUUCACGUCGCGGCCCCUGUCAGCUUCUGGUGAGUCUGCGAAUUCUGCUGU [A42C A52G], 0.919.
Under GGGGGCCACAGCAGAAGCGUUCACGUCGCGGCCCCUGUCAGCUUCUGGUGACUCUGCGAAUUCUGCUGU [A42C A52C] stands 0.803; under GGGGGCCACAGCAGAAGCGUUCACGUCGCGGCCCCUGUCAGCUUCUGGUGGAUCUGCGAAUUCUGCUGU [A42C A51G], 0.852.
GGGGGCCACAGCAGAAGCGUUCACGUCGCGGCCCCUGUCAGCUUCUGGUGAAUCCGCGAAUUCUGCUGU [A42C U55C]: the self-cleavage is 0.328.
With GGGGGCCACAGCAGAAGCGUUCACGUCGCGGCCCCUGUCAGCUUCUGGUGAAUCGGCGAAUUCUGCUGU [A42C U55G], the self-cleavage amounted to 0.285.
Under GGGGGCCACAGCAGAAGCGUUCACGUCGCGGCCCCUGUCAGCUUCUGGUGAAUCAGCGAAUUCUGCUGU [A42C U55A] stands 0.595; under GGGGGCCACAGCAGAAGCGUUCACGUCGCGGCCCCUGUCAGCUUCUGGGGAAUCUGCGAAUUCUGCUGU [A42C U49G], 0.964.
Turning to GGGGGCCACAGCAGAAGCGUUCACGUCGCGGCCCCUGUCAGCUUCUGGAGAAUCUGCGAAUUCUGCUGU [A42C U49A], the self-cleavage is 0.974.
Under GGGGGCCACAGCAGAAGCGUUCACGUCGCGGCCCCUGUCAUAUUCUGGUGAAUCUGCGAAUACUGCUGU [G41U U62A] stands 0.506.
On to GGGGGCCACAGCAGAAGCGUUCACGUCGCGGCCCCUGUCAUAUUCUGGUGAAUCUGCGAAUCCUGCUGU [G41U U62C], for which the self-cleavage is 0.384.
Under GGGGGCCACAGCAGAAGCGUUCACGUCGCGGCCCCUGUCAGCUGCUGGUGAAUCUGCGAAUUCUGCUGU [A42C U44G] stands 0.816; under GGGGGCCACAGCAGAAGCGUUCACGUCGCGGCCCCUGUCAGCUACUGGUGAAUCUGCGAAUUCUGCUGU [A42C U44A], 0.83; under GGGGGCCACAGCAGAAGCGUUCACGUCGCGGCCCCUGUCAGCUCCUGGUGAAUCUGCGAAUUCUGCUGU [A42C U44C], 0.736.
Under GGGGGCCACAGCAGAAGCGUUCACGUCGCGGCCCCUGUCAGCUUCGGGUGAAUCUGCGAAUUCUGCUGU [A42C U46G] stands 0.929; under GGGGGCCACAGCAGAAGCGUUCACGUCGCGGCCCCUGUCAGCUUCUAGUGAAUCUGCGAAUUCUGCUGU [A42C G47A], 0.921; under GGGGGCCACAGCAGAAGCGUUCACGUCGCGGCCCCUGUCAGCUUCUGGUGAAUCUGCGAACUCUGCUGU [A42C U61C], 0.477.
Under GGGGGCCACAGCAGAAGCGUUCACGUCGCGGCCCCUGUCAGCUUCUGGUGAAUCUGCGAAAUCUGCUGU [A42C U61A] stands 0.742.
Take GGGGGCCACAGCAGAAGCGUUCACGUCGCGGCCCCUGUCAGCAUCUGGUGAAUCUGCGAAUUCUGCUGU [A42C U43A]: the self-cleavage was found to be 0.778.
To GGGGGCCACAGCAGAAGCGUUCACGUCGCGGCCCCUGUCAGCGUCUGGUGAAUCUGCGAAUUCUGCUGU [A42C U43G] belongs 0.703.
To GGGGGCCACAGCAGAAGCGUUCACGUCGCGGCCCCUGUCAUAUUCUGGCGAAUCUGCGAAUUCUGCUGU [G41U U49C] belongs 0.849; to GGGGGCCACAGCAGAAGCGUUCACGUCGCGGCCCCUGUCAUAUGCUGGUGAAUCUGCGAAUUCUGCUGU [G41U U44G], 0.336; to GGGGGCCACAGCAGAAGCGUUCACGUCGCGGCCCCUGUCAUAUACUGGUGAAUCUGCGAAUUCUGCUGU [G41U U44A], 0.339.
Under GGGGGCCACAGCAGAAGCGUUCACGUCGCGGCCCCUGUCAUAUUCUGGUGAACCUGCGAAUUCUGCUGU [G41U U53C] stands 0.364; under GGGGGCCACAGCAGAAGCGUUCACGUCGCGGCCCCUGUCAUAUUCUGGUGAAGCUGCGAAUUCUGCUGU [G41U U53G], 0.604.
Turning to GGGGGCCACAGCAGAAGCGUUCACGUCGCGGCCCCUGUCAUAUUCGGGUGAAUCUGCGAAUUCUGCUGU [G41U U46G], the self-cleavage is 0.887.
As for GGGGGCCACAGCAGAAGCGUUCACGUCGCGGCCCCUGUCAUAUUCAGGUGAAUCUGCGAAUUCUGCUGU [G41U U46A], the self-cleavage stood at 0.947.
Under GGGGGCCACAGCAGAAGCGUUCACGUCGCGGCCCCUGUCAUAUUCCGGUGAAUCUGCGAAUUCUGCUGU [G41U U46C] stands 0.752; under GGGGGCCACAGCAGAAGCGUUCACGUCGCGGCCCCUGUCAGCUUCUGGUGAAUCUUCGAAUUCUGCUGU [A42C G56U], 0.568; under GGGGGCCACAGCAGAAGCGUUCACGUCGCGGCCCCUGUCAGCUUCUGGUGAAUCUCCGAAUUCUGCUGU [A42C G56C], 0.325.
Under GGGGGCCACAGCAGAAGCGUUCACGUCGCGGCCCCUGUCAGGUUCUGGUGUAUCUGCGAAUUCUGCUGU [A42G A51U] stands 0.799; under GGGGGCCACAGCAGAAGCGUUCACGUCGCGGCCCCUGUCAGGUUCUGGUGCAUCUGCGAAUUCUGCUGU [A42G A51C], 0.672; under GGGGGCCACAGCAGAAGCGUUCACGUCGCGGCCCCUGUCAGCUUCUGGUGAAUCUGCGAAUUCUGCUUU [A42C G68U], 1.01.
To GGGGGCCACAGCAGAAGCGUUCACGUCGCGGCCCCUGUCAGCUUCUGGUGAAUCUGCGAAUUCUGCUAU [A42C G68A] belongs 1; to GGGGGCCACAGCAGAAGCGUUCACGUCGCGGCCCCUGUCAGCUUCUGGUGAAUCUGCGAAUUCUGCUCU [A42C G68C], 0.963.
